To fix the notation:
B4: SNX5^FL (full-length sorting nexin 5) (natural protein, human, UniProt Q9Y5X3 1-404, looked up)
chain: MAAVPELLQQQEEDRSKLRSVSVDLNVDPSLQIDIPDALSERDKVKFTVHTKTTLPTFQSPEFSVTRQHEDFVWLHDTLIETTDYAGLIIPPAPTKPDFDGPREKMQKLGEGEGSMTKEEFAKMKQELEAEYLAVFKKTVSSHEVFLQRLSSHPVLSKDRNFHVFLEYDQDLSVRRKNTKEMFGGFFKSVVKSADEVLFTGVKEVDDFFEQEKNFLINYYNRIKDSCVKADKMTRSHKNVADDYIHTAACLHSLALEEPTVIKKYLLKVAELFEKLRKVEGRVSSDEDLKLTELLRYYMLNIEAAKDLLYRRTKALIDYENSNKALDKARLKSKDVKLAEAHQQECCQKFEQLSESAKEELINFKRKRVAAFRKNLIEMSELEIKHARNNVSLLQSCIDLFKNN
notes: sorting nexin 5 (SNX5), human, full length; Monomer by SEC-MALS; also called SNX5^WT; source: E. coli BL21 (DE3), purified (glutathione Sepharose, TEV cleavage, SEC); not shown: GST, N-terminal, cleaved

Conditions in all cases: both partners purified
Test [1] deals with B4. The test can be described thus: ITC; 25 °C, 300 mM NaCl, 0.5 mM TCEP, 25 mM HEPES pH 7.5; CI-MPR in the syringe (SNX1^PX in the syringe for its test with the peptide); one-site model.
Test [2] concerns the target T1, ESCPE-1 (SNX1^FL–SNX5^FL heterodimer) (human, UniProt Q13596 1-522; Q9Y5X3 1-404).
T1 construct: sorting nexin 1 (SNX1), human, full length; sorting nexin 5 (SNX5), human, full length; Single heterodimer by SEC-MALS; The GST tag is called cleavable; also called SNX1–SNX5; SNX1^WT-SNX5^WT; source: E. coli BL21 (DE3), pellets mixed and lysed together, purified (glutathione Sepharose, Ni-NTA, SENP2, ion exchange, SEC); not shown: His6-SUMO3, N-terminal, cleaved; copies: 1 + 1
Described as above.

Test [3] has as its target T2, SNX1^BAR–SNX5^FL heterodimer (human, UniProt Q13596 301-522; Q9Y5X3 1-404).
T2 construct: BAR domain of SNX1, human; sorting nexin 5 (SNX5), human, full length; also called SNX1^BAR–SNX5 partial heterodimer; source: E. coli BL21 (DE3), purified as for SNX1^FL–SNX5^FL; not shown: His6-SUMO3, N-terminal, cleaved; copies: 1 + 1
Described as above.

The target in test [4] is T3, SNX5^PX (PX domain of SNX5) (human, UniProt Q9Y5X3 25-172).
T3 construct: PX domain of sorting nexin 5 (SNX5), human; also called SNX5^PX domain; isolated PX domain; source: E. coli BL21 (DE3), purified (Ni-NTA, TEV cleavage, ion exchange, SEC); not shown: His6-MBP, N-terminal, cleaved
T3 sequence (looked up): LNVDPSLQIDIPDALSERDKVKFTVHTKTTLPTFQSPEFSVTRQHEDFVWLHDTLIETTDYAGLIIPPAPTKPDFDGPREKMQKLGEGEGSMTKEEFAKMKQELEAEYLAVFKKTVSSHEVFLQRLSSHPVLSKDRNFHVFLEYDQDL
The test is described as above.

Test [5] deals with T3, SNX5^PX (PX domain of SNX5). The test can be described thus: ITC; 25 °C, 300 mM NaCl, 0.5 mM TCEP, 25 mM HEPES pH 7.5; 445 µM CI-MPR_(2347–2375) peptide titrated into a mix of 100 µM SNX1^BAR and 20 µM SNX5^PX; one-site model. (In general: ITC needs no label: the signal is the heat of the interaction.)
For test [6], the target named is T4, His-SUMO-SNX1 (2× mut)^† (human, UniProt Q13596 1-522, F347A | W511A).
T4 construct: sorting nexin 1 (SNX1), human, full length, double mutant; Bait of the Ni-NTA pull-down; source: E. coli BL21 (DE3), purified (tag-removal step omitted); not shown: His6-SUMO3, N-terminal, kept
The test can be described thus: pull-down; 5 µM His-SUMO-SNX1 or mutant held on Ni-NTA beads, 10 µM SNX5 or mutant; 1 h at 4 °C in 150 mM NaCl, 10 mM imidazole, 0.5 mM TCEP, 10 mM HEPES pH 7.5; Coomassie-stained SDS-PAGE.

Test [7] has as its target T5, His-SUMO-SNX1 (human, UniProt Q13596 1-522).
T5 construct: sorting nexin 1 (SNX1), human, full length; Bait of the Ni-NTA pull-down; also called wild-type (WT) SNX1; source: E. coli BL21 (DE3), purified (tag-removal step omitted); not shown: His6-SUMO3, N-terminal, kept
The test is described as above.

The target of test [8] is T6, SNX1^FL (full-length sorting nexin 1) (human, UniProt Q13596 1-522).
T6 construct: sorting nexin 1 (SNX1), human, full length; Homodimer by SEC-MALS; also called SNX1 WT; source: E. coli BL21 (DE3), purified (Ni-NTA, SENP2 tag cleavage, ion exchange, SEC); not shown: His6-SUMO3, N-terminal, cleaved
Description: SEC-MALS; 100 μl of protein at 1 mg ml^−1 in 150 mM NaCl, 0.5 mM TCEP, 10 mM HEPES pH 7.5; Superdex 200 Increase 10/300 GL. In general terms: Size exclusion chromatography separates by hydrodynamic size, large species first.

In test [9] the target is B4. The test can be described thus: liposome flotation; CI-MPR_(2330–2491) cross-linked by its N-terminal cysteine to DSPE-Mal (1–6%) on liposomes without phosphoinositides; SNXs incubated 1 h at 4 °C in buffer G; sucrose gradient, floated fraction on SDS-PAGE.
Test [10] has as its target T1, ESCPE-1 (SNX1^FL–SNX5^FL heterodimer). The description is as above.

T1 sequence (Q13596 whole entry, one chain of several): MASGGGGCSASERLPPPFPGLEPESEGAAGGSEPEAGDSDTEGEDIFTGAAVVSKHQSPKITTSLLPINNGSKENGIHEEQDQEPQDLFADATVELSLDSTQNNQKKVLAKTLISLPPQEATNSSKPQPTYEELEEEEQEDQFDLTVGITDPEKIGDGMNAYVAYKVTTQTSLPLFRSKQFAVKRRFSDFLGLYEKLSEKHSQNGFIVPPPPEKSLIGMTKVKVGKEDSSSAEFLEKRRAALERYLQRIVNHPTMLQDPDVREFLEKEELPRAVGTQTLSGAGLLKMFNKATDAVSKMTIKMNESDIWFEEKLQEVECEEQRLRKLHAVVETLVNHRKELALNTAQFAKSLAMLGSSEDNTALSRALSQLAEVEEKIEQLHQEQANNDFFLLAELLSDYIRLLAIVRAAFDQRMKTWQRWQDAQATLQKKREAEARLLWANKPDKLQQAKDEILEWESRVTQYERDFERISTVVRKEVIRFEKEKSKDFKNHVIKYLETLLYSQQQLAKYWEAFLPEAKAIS
T5 sequence (Q13596 whole entry): as the sequence (Q13596 whole entry, one chain of several) above
T4 sequence (Q13596 whole entry F347A/W511A): as the sequence (Q13596 whole entry, one chain of several) above, with F347A, W511A counted along it
T6 sequence (Q13596 whole entry): as the sequence (Q13596 whole entry, one chain of several) above
T2 sequence (Q13596 301-522, chain 1 of 2, one chain of several): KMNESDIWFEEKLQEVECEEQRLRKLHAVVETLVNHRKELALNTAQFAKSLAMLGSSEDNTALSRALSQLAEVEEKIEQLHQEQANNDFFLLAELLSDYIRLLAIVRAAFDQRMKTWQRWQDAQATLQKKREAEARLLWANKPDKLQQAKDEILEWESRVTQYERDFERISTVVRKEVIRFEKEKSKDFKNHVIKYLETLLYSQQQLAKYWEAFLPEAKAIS

B1: SUMO-CI-MPR_(2330–2491) (entire cytosolic tail domain of CI-MPR) (domain or fragment, UniProt P11717 2330-2491, looked up)
chain: ERRETVISKLTTCCRRSSNVSYKYSKVNKEEETDENETEWLMEEIQLPPPRQGKEGQENGHITTKSVKALSSLHGDDQDSEDEVLTIPEVKVHSGRGAGAESSHPVRNAQSNALQEREDDRVGLVRGEKARKGKSSSAQQKTVSSTKLVSFHDDSDEDLLHI
notes: cation-independent mannose-6-phosphate receptor (CI-MPR), cytosolic tail, residues 2330-2491; also called CI-MPR tail domain; cytoplasmic domain of the CI-MPR; source: E. coli Rosetta (DE3), purified; not shown: His6-SUMO3, N-terminal, kept
In general, Kd refers to the constant that tells how readily two partners part at equilibrium. Higher therefore signals lower affinity. Consider B1, for which the Kd in test [1] is roughly 8800 nM; in [2], 2600 nM.

B2: CI-MPR_(2347–2375) peptide (bipartite sorting motif of the cation-independent mannose-6-phosphate receptor tail) (peptide, UniProt P11717 2347-2375, looked up)
peptide: SNVSYKYSKVNKEEETDENETEWLMEEIQ
notes: Called a peptide in the ITC methods; also called shorter CI-MPR tail segment
Turning to B2, the figures for the Kd in test [3], in test [4] and in test [2] were roughly 1900 nM, roughly 8000 nM and 1500 nM, respectively. For the same molecule, the “KD into a mixture of SNX5^PX and SNX1^BAR” value in test [5] is roughly 3200 nM.

B3: SNX5 (4 mut)^‡ (Y219A, M233A, V240A, R368A) (natural protein, human, UniProt Q9Y5X3 1-404, looked up)
chain: MAAVPELLQQQEEDRSKLRSVSVDLNVDPSLQIDIPDALSERDKVKFTVHTKTTLPTFQSPEFSVTRQHEDFVWLHDTLIETTDYAGLIIPPAPTKPDFDGPREKMQKLGEGEGSMTKEEFAKMKQELEAEYLAVFKKTVSSHEVFLQRLSSHPVLSKDRNFHVFLEYDQDLSVRRKNTKEMFGGFFKSVVKSADEVLFTGVKEVDDFFEQEKNFLINAYNRIKDSCVKADKATRSHKNAADDYIHTAACLHSLALEEPTVIKKYLLKVAELFEKLRKVEGRVSSDEDLKLTELLRYYMLNIEAAKDLLYRRTKALIDYENSNKALDKARLKSKDVKLAEAHQQECCQKFEQLSESAKEELINFKRKAVAAFRKNLIEMSELEIKHARNNVSLLQSCIDLFKNN
notes: sorting nexin 5 (SNX5), human, four point mutations; source: E. coli BL21 (DE3), purified (glutathione Sepharose, TEV cleavage, SEC); not shown: GST, N-terminal, cleaved
B3: the binding result in test [6] and in test [7] was “binds” in each case.
As to B4, the binding result in test [8], in test [6] and in test [7] was “binds” throughout.

B5: CI-MPR_(2330–2491) cytosolic tail with an N-terminal cysteine, cross-linked to liposomes (domain or fragment, UniProt P11717 2330-2491, looked up)
chain: ERRETVISKLTTCCRRSSNVSYKYSKVNKEEETDENETEWLMEEIQLPPPRQGKEGQENGHITTKSVKALSSLHGDDQDSEDEVLTIPEVKVHSGRGAGAESSHPVRNAQSNALQEREDDRVGLVRGEKARKGKSSSAQQKTVSSTKLVSFHDDSDEDLLHI
modifications: N-terminal cysteine cross-linked to maleimide-functionalized lipid (DSPE-Mal) on liposomes
notes: cation-independent mannose-6-phosphate receptor (CI-MPR), cytosolic tail, residues 2330-2491; also called CI-MPR tail; source: E. coli Rosetta (DE3), purified, conjugated to DSPE-Mal liposomes; not shown: Cys (added for chemical cross-linking), N-terminal, kept
Turning to B5, the binding result in test [9] and in test [10] was “binds” in each case.

B6: SNX5 (6 mut)^§ (Y219A, M233A, V240A, R368A, I398A, F401A) (natural protein, human, UniProt Q9Y5X3 1-404, looked up)
chain: MAAVPELLQQQEEDRSKLRSVSVDLNVDPSLQIDIPDALSERDKVKFTVHTKTTLPTFQSPEFSVTRQHEDFVWLHDTLIETTDYAGLIIPPAPTKPDFDGPREKMQKLGEGEGSMTKEEFAKMKQELEAEYLAVFKKTVSSHEVFLQRLSSHPVLSKDRNFHVFLEYDQDLSVRRKNTKEMFGGFFKSVVKSADEVLFTGVKEVDDFFEQEKNFLINAYNRIKDSCVKADKATRSHKNAADDYIHTAACLHSLALEEPTVIKKYLLKVAELFEKLRKVEGRVSSDEDLKLTELLRYYMLNIEAAKDLLYRRTKALIDYENSNKALDKARLKSKDVKLAEAHQQECCQKFEQLSESAKEELINFKRKAVAAFRKNLIEMSELEIKHARNNVSLLQSCADLAKNN
notes: sorting nexin 5 (SNX5), human, six point mutations; source: E. coli BL21 (DE3), purified (glutathione Sepharose, TEV cleavage, SEC); not shown: GST, N-terminal, cleaved
As for B6, the binding result in [7] is recorded as “binds”.

For the origin of these results see publication PMC10352136 (Nature Structural & Molecular Biology, 2023).
